Test results reported in the supplement of paper PMC11780869.

System: Bacillus subtilis
Experiment: cleaved RNA product abundance (RNA/gDNA barcode ratio) relative to median wild-type variant (ratio to wild type); higher = more accumulation of the downstream cleavage product
Method in brief: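 In LB at 37°C, B. subtilis cultures went from OD600 0.0003 to 0.3. Their chromosomes held barcoded reporter mRNAs, truncated aprE or tetM, with RNase Y cleavage-site windows mutagenized via oligos at a 9% error rate. Cleaved RNA, chosen by gel, was reverse transcribed and barcode-sequenced alongside genomic DNA barcodes with UMI collapsing, giving a per-construct RNA:gDNA ratio scaled to the median construct with the unmutated site. This scaled ratio is termed cleaved product abundance.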

[1] = experiment (reporter, strain, medium): exp 8a: truncated aprE reporter, strain BJT201 with 2% xylose (RNase J1 expressed), cleavage site: glnRA (positions -5 to +31 mutated)
[2] = experiment (reporter, strain, medium): exp 2b: truncated aprE reporter, strain BJT200, cleavage site: cggR-gapA (positions -7 to +36 mutated)
[3] = experiment (reporter, strain, medium): exp 4a: truncated aprE reporter, strain BJT201 with 2% xylose (RNase J1 expressed), cleavage site: cggR-gapA (positions -7 to +36 mutated)

CGACATGTCCCGCTTCTTTCATTAATCCGTTATCAACTGTTATGCTATATACATTTACCTTTTAAGAGGAGGAAT
cleaved RNA product abundance [1]: 0.24

ACAGACGAAGGAGCCGCAAAGAAGTTATTAAGGGCTGAATATTCCCTCAATATAAATATCTCTCACTTATTTAAA
cleaved RNA product abundance [2]: 0.228 | cleaved RNA product abundance [3]: 0.16

CGACATGTCCCGCTTCTTTCATTAATCCGTTATCAACTGCTTTGCTATATACATTTACCTTTTAAGAGGAGGAAT
cleaved RNA product abundance [1]: 0.114

CGACATGTCCCGCTTCTTTCATTAATCCGTTAGCAACTGTTTTACTCTATACATTTACCTTTTAAGAGGAGGAAT
cleaved RNA product abundance [1]: 0.597

CGACATGTCCCGCTTCTTTCATTAATCCGTTATCAACTGTTTTGCTATATAAATTTACCTTTTAAGAGGAGGAAT
cleaved RNA product abundance [1]: 0.243

ACAGACGAAGGAGCCGCAAAGAAGTTATTAAGGGATGATAATCCCTCAATATAAATATCTCTCACTTATTTAAAG
cleaved RNA product abundance [3]: 0.861

ACAGACGAAGGAGCCGCAAAGAAATTATTAAGGGATGATTAATCCCTCAATATAAATATCTCTCACTTATTTAAA
cleaved RNA product abundance [2]: 0.816 | cleaved RNA product abundance [3]: 0.599

ACAGACGAAGGAGCCGCAAAGAAGTTAGAAAGGGATGAATAATCCCTCAATATAAATATCTCTCACTTATTTAAA
cleaved RNA product abundance [3]: 0.426

ACAGACGAAGGAGCCGCAAAGAAGTTCTTAAGGGATGAATTATCCCTCAATATAAATATCTCTCACTTATTTAAA
cleaved RNA product abundance [3]: 0.126

ACAGACGAAGGAGCCGCAAAGAAGTTTTTAAGGGATGAATAATCCCTCAATATACATATCTCTCACTTATTTAAA
cleaved RNA product abundance [3]: 0.364

CGACATGTCCCGCTTCTTTCATTAATCCGTTAGCAACTGTTTTGCAATATCCATTTACCTTTTAAGAGGAGGAAT
cleaved RNA product abundance [1]: 0.156

ACAGACGAAGGAGCCGCAAATAAGTTATTAAGGTATGAATAATCCCTCAATATAAATATCTCTCACTTATTTAAA
cleaved RNA product abundance [2]: 0.169 | cleaved RNA product abundance [3]: 0.139

CGACATGTCCCGCTTCTTTCATTATTCCGTTAGCAACTGTTTTGCTATTTACATTTACCTTTTAAGAGGAGGAAT
cleaved RNA product abundance [1]: 0.131

CGACATGTCCCGCTTCTTTCATTAATCCGGTAGCAACTGTTTTGATATATACATTTACCTTTTAAGAGGAGGAAT
cleaved RNA product abundance [1]: 0.316

CGACATGTCCCGCTTCTTTCATTAATCCATTAGCAACTGTTTTGCTATATACTTTTACCTTTTAAGAGGAGGAAT
cleaved RNA product abundance [1]: 0.253

ACAGACGAAGGAGCCGCAAAGAACTTATTAACGGATGAATAATCCCTCAATATAAATATCTCTCACTTATTTAAA
cleaved RNA product abundance [3]: 0.112

CGACATGTCCCGCTTCTTTCATTAATGCTTTAGCAACTGTTTTGCTATATACATTTACCTTTTAAGAGGAGGAAT
cleaved RNA product abundance [1]: 0.618

CGACATGTCCCGCTTCTTTCATTAATCCGTTAGCAACAGTTTTGCTATATATATTTACCTTTTAAGAGGAGGAAT
cleaved RNA product abundance [1]: 0.588

ACAGACGAAGGAGCCGCAAAGAAGTTATTAAGCGATGAATAATCCGTCAATATAAATATCTCTCACTTATTTAAA
cleaved RNA product abundance [3]: 0.139

ACAGACGAAGGAGCCGCAAAGAAGTTATTAAGGGATTAATAATCCCTAAATATAAATATCTCTCACTTATTTAAA
cleaved RNA product abundance [2]: 0.535 | cleaved RNA product abundance [3]: 0.745

ACAGACGAAGGAGCCGCAAAGAAGTTATTAAGGGATGAACAATCCCACAATATAAATATCTCTCACTTATTTAAA
cleaved RNA product abundance [3]: 0.364

ACAGACGAAGGAGCCGCAAAGAAGTTATTAAGGGATGAATAATCCCTCAATATAACCATCTCTCACTTATTTAAA
cleaved RNA product abundance [3]: 0.296

ACAGACGAAGGAGCCGCATAGAAGTTATTCAGGGATGAATAATCCCTCAATATAAATATCTCTCACTTATTTAAA
cleaved RNA product abundance [3]: 0.947

CGACATGTCCCGCTTCTTTCATTAATCCATTAGCAACTGTTTCGCTATATACATTTACCTTTTAAGAGGAGGAAT
cleaved RNA product abundance [1]: 0.271

CGACATGTCCCGCTTCTTTCATTAATCCGTTAGCAACTGTTTAGCTTTATACATTTACCTTTTAAGAGGAGGAAT
cleaved RNA product abundance [1]: 0.192

CGACATGTCCCGCTTCTTTCATTAATCCGTTAGCAACTTTTTTGCTATATACATTTAACTTTTAAGAGGAGGAAT
cleaved RNA product abundance [1]: 1.81

ACAGACGAAGGAGCCGCAAGGAAGTTATTAAGGGATGAATAATACCTCAATATAAATATCTCTCACTTATTTAAA
cleaved RNA product abundance [2]: 0.0986 | cleaved RNA product abundance [3]: 0.197

ACAGACGAAGGAGCCGCAAATAATTTATTAAGGGATGAATAATCCCTCAATATAAATATCTCTCACTTATTTAAA
cleaved RNA product abundance [2]: 0.866 | cleaved RNA product abundance [3]: 0.591

CGACATGTCCCGCTTCTTTCATTAATCCGTCAGCAACTGTTTTGCTATATACATTTACCATTTAAGAGGAGGAAT
cleaved RNA product abundance [1]: 0.704

ACAGACGAAGGAGCCGCAAAGAAGTTATTAAGGAATGAATTATCCCTCAATATAAATATCTCTCACTTATTTAAA
cleaved RNA product abundance [3]: 0.0807

ACAGACGAAGGAGCCGCAAAGAATTTATTAAGGGATGAATAATCCCTCAATATAAATAACTCTCACTTATTTAAA
cleaved RNA product abundance [3]: 0.544

ACAGACGAAGGAGCCGCAAAGAAGTTATTAAGGGATTAATAATCCCTCAAGATAAATATCTCTCACTTATTTAAA
cleaved RNA product abundance [2]: 0.203 | cleaved RNA product abundance [3]: 0.254

ACAGACGAAGGAGCCGCAAAGAAGTTATTAAGGGATGAATAAACTCTCAATATAAATATCTCTCACTTATTTAAA
cleaved RNA product abundance [3]: 0.14

CGACATGTCCCGCTTCTTTCATTAATCCGTCAGCAAATGTTTTGCTATATACATTTACCTTTTAAGAGGAGGAAT
cleaved RNA product abundance [1]: 0.398

ACAGACGAAGGAGCCGCAAAGAAGTTATTAAGTGTTGAATAATCCCTTAATATAAATATCTCTCACTTATTTAAA
cleaved RNA product abundance [3]: 0.146

CGACATGTCCCGCTTCTTTCATTAATACGTTAGCAACTGTTTTGCTATATACGTTTACCTTTTAAGAGGAGGAAT
cleaved RNA product abundance [1]: 0.284

ACAGACGAAGGAGCCGCAAAGAATTTATTAAGGGATGAATAATCCCTCAATCTAAATATCTCTCACTTATTTAAA
cleaved RNA product abundance [3]: 0.102

ACAGACGAAGGAGCCGCAAAGAAGTTATTAATGGATGAATAATCCCACAATATAAATATCTCTCACTTATTTAAA
cleaved RNA product abundance [2]: 0.0949 | cleaved RNA product abundance [3]: 0.156

ACAGACGAAGGAGCCGCAATGAAGTTATTAAGGGATGAATATTCCCTCAATATAAATATCTCTCACTTATTTAAA
cleaved RNA product abundance [2]: 0.573 | cleaved RNA product abundance [3]: 0.519

ACAGACGAAGGAGCCGCAAAGAAGTTATAAAGGGATGAATAATCCCACAATATAAATATCTCTCACTTATTTAAA
cleaved RNA product abundance [2]: 0.175 | cleaved RNA product abundance [3]: 0.183

CGACATGTCCCGCTTCTTTCATTAATCCGTTATCAACTGTTTTGCTATATACATTTACATTTTAAGAGGAGGAAT
cleaved RNA product abundance [1]: 0.366

ACAGACGAAGGAGCCGCAAAGAATTTATTAAGGGATGAATAATTCCTCAATATAAATATCTCTCACTTATTTAAA
cleaved RNA product abundance [3]: 0.394

ACAGACGAAGGAGCCGCAAAGAAGTTATTAATGAATGAATAATCCCTCAATATAAATATCTCTCACTTATTTAAA
cleaved RNA product abundance [2]: 0.0941 | cleaved RNA product abundance [3]: 0.137

ACAGACGAAGGAGCCGCAAAGAAGTTATTAAGGAATGAATAAACCCTCAATATAAATATCTCTCACTTATTTAAA
cleaved RNA product abundance [2]: 0.0981 | cleaved RNA product abundance [3]: 0.11

CGACATGTCCCGCTTCTTTCATTAATCCGTAAGCAACTGTTTTGCTATATACATTTACTTTTTAAGAGGAGGAAT
cleaved RNA product abundance [1]: 0.641

ACAGACGAAGGAGCCGCAAAGAAGTTATTAAGGAATGAATAATCACTCAATATAAATATCTCTCACTTATTTAAA
cleaved RNA product abundance [2]: 0.111 | cleaved RNA product abundance [3]: 0.124

ACAGACGAAGGAGCCGCAAAGAATTTATTAAGGGATCAATAATCCCTCAATATAAATATCTCTCACTTATTTAAA
cleaved RNA product abundance [3]: 0.73

ACAGACGAAGGAGCCGCAAAAAAGTTATTAAGGGATGAATAATCCCTCAATATAAAGATCTCTCACTTATTTAAA
cleaved RNA product abundance [3]: 0.56

ACAGACGAAGGAGCCGCAACGAAGTTATTAAAGGATGAATAATCCCTCAATATAAATATCTCTCACTTATTTAAA
cleaved RNA product abundance [3]: 0.213

CGACATGTCCCGCTTCTTTCATTAATCCGTTAGCAACTGTTTTGCCATATACGTTTACCTTTTAAGAGGAGGAAT
cleaved RNA product abundance [1]: 0.0858

CGACATGTCCCGCTTCTTTCATTAATTCGTTAGCAACTGTTTTGCTATACACATTTACCTTTTAAGAGGAGGAAT
cleaved RNA product abundance [1]: 0.585

CGACATGTCCCGCTTCTTTCATTAATCCGTTAGCAACTGTTTTGATATATACATTTACCTTTTAAGAGGAGGAAT
cleaved RNA product abundance [1]: 0.503

ACAGACGAAGGAGCCGCAAAGAAGTTATTAAGGAATGATTAATCCCTCAATATAAATATCTCTCACTTATTTAAA
cleaved RNA product abundance [2]: 0.115 | cleaved RNA product abundance [3]: 0.11

CGACATGTCCCGCTTCTTTCATTAATCCGTTAGCAACTATTTTGGTATATACATTTACCTTTTAAGAGGAGGAAT
cleaved RNA product abundance [1]: 0.273

ACAGACGAAGGAGCCGCAAAGAATTTAATAAGGGATGAATAATCCCTCAATATAAATATCTCTCACTTATTTAAA
cleaved RNA product abundance [2]: 0.25 | cleaved RNA product abundance [3]: 0.309
